Data reported in patent US12747297 (dated 2026).

What was measured:
[1] = biological target: sIL-4Rα (human)
[2] = biological target: sIL-4Rα (human); test: BLI

Chain of sIL-4Rα (human) (chain, as listed by the source): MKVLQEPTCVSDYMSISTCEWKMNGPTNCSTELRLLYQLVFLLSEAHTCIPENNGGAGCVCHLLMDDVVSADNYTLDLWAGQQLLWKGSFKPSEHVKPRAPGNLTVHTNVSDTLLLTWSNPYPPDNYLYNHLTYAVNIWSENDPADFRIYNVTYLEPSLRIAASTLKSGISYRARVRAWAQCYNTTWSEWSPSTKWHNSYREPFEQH

| Binder | binding result [1] | Kd [2] [nM] |
| --- | --- | --- |
| 5R65.39 (antibody, V domains shown) VH: QVQLVQSGAEVKKPGSSVKVSCKASGYTFTSYWINWVRQAPGQGLEWIGHIYPNKNENYYNHKFKDKATLTVDKSTNTAYMELSSLRSEDTAVYYCTREFYGRSRYSAMDYWGQGTTLTVSS VL: DIQMTQSPSTLSASVGDRVTITCKASQNVGTAVAWYQQKPGKAPKLLIYWASTRHTGVPDRFSGSGSGTDFTLTISSLQPDDFATYYCQQFGRYPYTFGSGTKVEVK | no binding | – |
| 5R65 (antibody, V domains shown) VH: QVQLVQSGAEVKKPGSSVKVSCKASGYTFTSYWINWVRQAPGQGLEWIGHIYPNKNENYYNHKFKDKATLTVDKSTNTAYMELSSLRSEDTAVYYCTRDYYGRSYYYAMDYWGQGTTLTVSS VL: DIQMTQSPSTLSASVGDRVTITCKASQNVGTAVAWYQQKPGKAPKLLIYWASTRHTGVPDRFSGSGSGTDFTLTISSLQPDDFATYYCQQFGRYPYTFGSGTKVEVK | no binding | – |
| 4R.N8 (antibody, V domains shown) VH: EVQLLESGGGLVQPGGSLRLSCAASGFTFSRHAMAWVRQAPGKGLEWVSAITMSGRSIYYADSVKGRFTISRDNSKNTLYLQMNSLRAEDTAVYYCARVHRAFDYWGQGTLVTVSS VL: QSVLTQPPSASGTPGQRVTISCSGSPLFPDSGSFNWYQQLPGTAPKLLIYADSHRPSGVPDRFSGSKSGTSASLAISGLRSEDEADYYCGTWDYSLSRYVLGGGTKLTVLG | – | 0.0802 |
| 4R.N2 (antibody, V domains shown) VH: EVQLLESGGGLVQPGGSLRLSCAASGFTFSRHAMAWVRQAPGKGLEWVSAITASGRSIYYGDSVKGRFTISRDNSKNTLYLQMNSLRAEDTAVYYCARVHRAFDYWGQGTLVTVSS VL: QSVLTQPPSASGTPGQRVTISCSGSPLFPDSGSFNWYQQLPGTAPKLLIYADSHRPSGVPDRFSGSKSGTSASLAISGLRSEDEADYYCGTWDYSLSAYVLGGGTKLTVLG | – | 0.108 |

Next, values leading:

| binding result [1] | Kd [2] [nM] | Binder |
| --- | --- | --- |
| no binding | – | 5R65.7 (antibody, V domains shown) VH: QVQLVQSGAEVKKPGSSVKVSCKASGYTFTSYWINWVRQAPGQGLEWIGHIYPNKNENYYNHKFKDKATLTVDKSTNTAYMELSSLRSEDTAVYYCTREFYGRQYYQAMDYWGQGTTLTVSS VL: DIQMTQSPSTLSASVGDRVTITCKASQNVGTAVAWYQQKPGKAPKLLIYWASTRHTGVPDRFSGSGSGTDFTLTISSLQPDDFATYYCQQFGRYPYTFGSGTKVEVK |
| no binding | – | 5R65.10 (antibody, V domains shown) VH: QVQLVQSGAEVKKPGSSVKVSCKASGYTFTSYWINWVRQAPGQGLEWIGHIYPNKNENYYNHKFKDKATLTVDKSTNTAYMELSSLRSEDTAVYYCTREYYGRSYYAAMDYWGQGTTLTVSS VL: DIQMTQSPSTLSASVGDRVTITCKASQNVGTAVAWYQQKPGKAPKLLIYWASTRHTGVPDRFSGSGSGTDFTLTISSLQPDDFATYYCQQFGRYPYTFGSGTKVEVK |
| no binding | – | 5R65.14 (antibody, V domains shown) VH: QVQLVQSGAEVKKPGSSVKVSCKASGYTFTSYWINWVRQAPGQGLEWIGHIYPNKNENYYNHKFKDKATLTVDKSTNTAYMELSSLRSEDTAVYYCTREHYGRPYYNAMDYWGQGTTLTVSS VL: DIQMTQSPSTLSASVGDRVTITCKASQNVGTAVAWYQQKPGKAPKLLIYWASTRHTGVPDRFSGSGSGTDFTLTISSLQPDDFATYYCQQFGRYPYTFGSGTKVEVK |
| no binding | – | 5R65.18 (antibody, V domains shown) VH: QVQLVQSGAEVKKPGSSVKVSCKASGYTFTSYWINWVRQAPGQGLEWIGHIYPNKNENYYNHKFKDKATLTVDKSTNTAYMELSSLRSEDTAVYYCTREYYGRTYYSAMDYWGQGTTLTVSS VL: DIQMTQSPSTLSASVGDRVTITCKASQNVGTAVAWYQQKPGKAPKLLIYWASTRHTGVPDRFSGSGSGTDFTLTISSLQPDDFATYYCQQFGRYPYTFGSGTKVEVK |
